Source: PMC11480844

B1: H2-Kb / B16 (parent)
chain 1: QQQVRQSPQSLTVWEGGTTVLTCSYEDSTFNYFPWYQQFPGEGPALLISILSVSDKKEDGRFTTFFNKREKKLSLHIIDSQPGDSATYFCAARGSALGRLHFGAGTQLIVIP
chain 2: EAAVTQSPRSKVAVTGGKVTLSCHQTNNHDYMYWYRQDTGHGLRLIHYSYVADSTEKGDIPDGYKASRPSQENFSLILELASLSQTAVYFCASSDGTNQAPLFGEGTRLSVL
chain 3: not shown
chain 4: IQKTPQIQVYSRHPPENGKPNILNCYVTQFHPPHIEIQMLKNGKKIPKVEMSDMSFSKDWSFYILAHTEFTPTETDTYACRVKHDSMAEPKTVYWDRDM
chain 5: SIINFEKL
B2: H2-Kb / H6 (parent)
chain 1: AQKVTQTQTSISVMEKTTVTMDCVYETQDSSYFLFWYKQTASGEIVFLIRQDSYKKENATVGHYSLNFQKPKSSIGLIITATQIEDSAVYFCAMRDYNQGKLIFGQGTKLSIKP
chain 2: EAAVTQSPRSKVAVTGGKVTLSCHQTNNHDYMYWYRQDTGHGLRLIHYSYVADSTEKGDIPDGYKASRPSQENFSLILELASLSQTAVYFCASSGTAANSDYTFGSGTRLLVI
chain 3: not shown
chain 4: B1 chain 4
chain 5: SIINFEKL
B3: H2-Kb / G2 (parent)
chain 1: GEQVEQRPPHLSVREGDSAVIICTYTDPNSYYFFWYKQEPGAGLQLLMKVFSSTEINEGQGFTVLLNKKDKQLSLNLTAAHPGDSAVYFCAVRTNQGGRALIFGTGTTVSVSP
chain 2: EAAVTQSPRSKVAVTGGKVTLSCHQTNNHDYMYWYRQDTGHGLRLIHYSYVADSTEKGDIPDGYKASRPSQENFSLILELASLSQTAVYFCASSGTDTEVFFGKGTRLTVV
chain 3: not shown
chain 4: B1 chain 4
chain 5: SIINFEKL

Variants of: B1
Test: % of reporter cells activated (NFAT-GFP), raw
Settings: with B16; scale: % of reporter cells activated
Further: test concentration or dose not given here.

Ratio to parent: each site, then its substitutions
chain 5 S1: R 0.846, T 1.36, A 1.54, Q 1.28, G 1.43, E 1.26, C 1.57, N 1.09, D 1.29, P 1.3, L 1.11, W 0.941, F 1.35, M 1.08, I 1.35, V 1.16, H 1.37, Y 1.56, K 1.38
chain 5 I2: M 1.11, P 1.48, Y 1.3, L 1.51, R 0.921, K 1.52, W 1.35, S 1.34, N 1.26, Q 1.21, T 1.34, V 1.33
chain 5 I3: M 1.4, H 1.38, F 1.11, R 0.807, T 1.24, L 1.28, V 1.07, G 1.22, Q 1.5, C 1.52, W 1.08, K 1.44, D 1.13, E 1.3, N 1.37, S 1.5, P 2.05, Y 1.33, A 1.55
chain 5 N4: T 1.04, R 0.969, Y 0.87, W 1.13, G 1.35, M 1.21, P 1.25, E 1.25, A 1.39, Q 0.992, L 1.48, S 1.09, V 1.14, C 1.2, D 1.19, I 1.25, F 0.909, K 1.37, H 1.26
chain 5 K7: F 1.01, E 1.16, R 0.488, M 0.921, I 1.41, C 1.33, A 1.29, N 0.823, V 0.823, P 1.02, L 1.03, Y 0.996, W 0.496, T 0.665, G 1.06, Q 1.39, H 1.21, S 0.657, D 0.886
chain 5 L8: Q 1.04, C 0.996, E 0.547, N 0.744, D 0.823, K 0.827, P 1.36, A 0.921, R 1.28, T 0.787, V 0.697, Y 1.24, S 0.65, I 0.602, F 0.579, M 0.799, G 1.26, H 1.1, W 0.689

Variants of: B2
Test: % of reporter cells activated (NFAT-GFP), raw
Settings: with H6; scale: % of reporter cells activated

Ratio to parent, by site and new letter:
chain 5 L8: K 0.13, D 0.209, N 0.433, E 0.214, T 0.521, V 0.537, G 0.36, M 0.538, Y 0.729, W 0.248, Q 0.131, F 0.32, C 0.28, S 0.129, P 0.26, H 0.825, R 0.406, I 0.888, A 0.199
chain 5 I3: V 1.57, H 0.61, L 1.02, S 0.872, R 0.295, T 0.955, K 0.236, P 1.18, Y 0.236, M 1.62, N 1.09, C 1.57, D 0.149, W 0.281, E 1.19, Q 1.11, A 1.33, F 0.342, G 0.962
chain 5 K7: F 0.111, N 0.0979, D 0.0822, Q 0.102, V 0.261, G 0.072, C 0.125, P 0.11, M 0.188, I 0.231, T 0.111, S 0.0877, E 0.122, R 1.36, A 0.097, W 0.129, Y 0.162, L 0.112, H 0.809
chain 5 F5: I 0.711, Y 0.516, C 1.01, T 0.694, Q 0.495, L 0.863, R 0.248, M 1.14, N 0.446, A 0.809, S 0.6, P 0.546, K 0.173, V 0.796, W 0.795, G 0.381, E 0.163, H 0.777, D 0.192
chain 5 E6: Y 0.0997, F 0.11, L 0.0813, Q 0.0813, A 0.0933, T 0.0942, K 0.131, H 0.0877, W 0.084, C 0.0748, I 0.0822, D 0.365, M 0.0896, P 0.0822, N 0.102, G 0.168, V 0.0536, S 0.107, R 0.097
chain 5 N4: D 0.132, V 0.0988, Y 0.358, R 0.102, F 0.335, G 0.445, K 0.126, I 0.116, L 0.146, S 0.295, P 0.519, M 0.111, Q 0.117, T 0.143, C 0.206, E 0.2, H 0.91, W 0.672, A 0.202
chain 5 S1: C 0.188, D 1.53, G 0.517, Q 0.602, V 0.294, R 0.333, I 0.338, P 0.141, N 0.416, L 0.355, K 0.384, W 0.292, Y 0.424, H 0.446, M 0.536, E 0.709, F 0.276, T 0.524, A 0.556
chain 5 I2: P 0.351, W 0.585, H 0.243, A 1.5, E 1.09, G 0.956, D 1.01, T 1.49, C 1.27, Q 0.385, K 0.24, F 0.733, N 0.541, Y 0.408, S 1.56, M 0.624, V 1.54, R 0.281, L 1.29

Variants of: B3
Test: % of reporter cells activated (NFAT-GFP), raw
Settings: with G2; scale: % of reporter cells activated

Ratio to parent: each site, then its substitutions
chain 5 S1: E 1.54, K 1.58, A 1.7, Q 1.22, D 1.62, L 1.73, R 1.02, Y 1.26, T 1.07
chain 5 N4: H 1.38, R 0.952, P 1.34, D 1.4, G 0.976, T 0.904, I 1.13, A 1.13, Q 1.18, Y 0.936
chain 5 I3: E 1.55, P 1.44, N 1.53, K 1.5, M 1.88, F 1.19, T 0.992, R 0.8, V 0.968
chain 5 K7: T 1.27, G 0.936, S 0.824, H 1.63, L 2.32, W 1.34, D 1.29, Y 1.22, P 1.46, R 0.664, V 1.13
chain 5 L8: A 1.06, K 1.4, T 0.944, V 1.32, N 1.54, W 0.768, G 1.54, I 1.04
chain 5 I2: W 1.18, G 0.928, A 1.66, Y 1.54, H 1.31, M 0.88, V 1.18, P 1.65, F 1.32, R 1.01
chain 5 F5: I 1.06, Y 1.62, K 1.36, H 1.51, M 1.31, P 1.42, T 1.06, R 0.864, S 0.88, V 1.42
chain 5 E6: T 1.73, Q 1.41, A 1.9, N 1.39, I 1.02, C 1.18, L 1.08, M 1.15
